In assay [1] the target is p217+ tau in pooled CSF from AD subjects (human tau protein or tau fragments phosphorylated at T217 and/or T212) (human) (UniProt P10636). Nature of the assay: Simoa sandwich ELISA, pT3 capture; pooled AD CSF at 1:2 dilution. A general note: In an ELISA, binding on a coated surface is turned into a signal by an enzyme label.
For assay [2] the target is unchanged. Nature of the assay: Simoa sandwich ELISA, pT3 capture; pooled AD CSF at 1:4 dilution.
For assay [3] the target is unchanged. Nature of the assay: Simoa sandwich ELISA, pT3 capture; pooled AD CSF at 1:8 dilution.
Assay [4] has the same target. In words: Simoa sandwich ELISA, pT3 capture; pooled AD CSF at 1:16 dilution.
The target is the same in assay [5]. Nature of the assay: Simoa sandwich ELISA, pT3 capture; pooled AD CSF at 1:32 dilution.
Assay [6] shares this target. In words: Simoa sandwich ELISA, pT3 capture; pooled AD CSF at 1:64 dilution.

p217+ tau in pooled CSF from AD subjects (human tau protein or tau fragments phosphorylated at T217 and/or T212) (human), sequence (P10636 other isoform, or with tags, fused parts or gaps limits assumed): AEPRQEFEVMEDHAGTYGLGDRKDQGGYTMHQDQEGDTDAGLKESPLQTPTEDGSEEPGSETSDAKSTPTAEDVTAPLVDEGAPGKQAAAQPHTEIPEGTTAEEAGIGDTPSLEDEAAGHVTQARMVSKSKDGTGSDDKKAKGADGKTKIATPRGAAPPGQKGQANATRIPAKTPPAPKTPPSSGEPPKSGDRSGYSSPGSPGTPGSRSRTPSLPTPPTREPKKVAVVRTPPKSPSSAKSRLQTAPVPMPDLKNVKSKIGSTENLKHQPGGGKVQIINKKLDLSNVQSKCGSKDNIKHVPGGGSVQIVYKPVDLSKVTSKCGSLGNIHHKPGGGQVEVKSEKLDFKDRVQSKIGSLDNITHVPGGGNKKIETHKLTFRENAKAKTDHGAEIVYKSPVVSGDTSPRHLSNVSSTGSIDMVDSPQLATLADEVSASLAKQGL

Turning to “Quanterix tau 2.0 assay detector (antibody)”, the S/N (Signal/Noise) in assay [1] was found to be 525; in assay [2], 262; in assay [3], 147; in assay [4] it was 75; in assay [5], 35; in assay [6], 19.

The values above are taken from patent publication US20200408781A1.
